Bounds are passed on as bounds.

Assay [1] concerns the target T1, cynomolgus monkey OX40 (cynomolgus monkey).
T1 construct: whole, on cells; also called cOX40; cynomolgus OX40
Kind of assay: flow cytometry on cOX40-Jurkat-NF-κB cells. (In flow cytometry, cells or beads pass a laser one at a time.)

For assay [2], the target named is T2, human OX40 (human, UniProt P43489 29-277).
T2 construct: whole, on cells; also called hOX40
T2 sequence (looked up): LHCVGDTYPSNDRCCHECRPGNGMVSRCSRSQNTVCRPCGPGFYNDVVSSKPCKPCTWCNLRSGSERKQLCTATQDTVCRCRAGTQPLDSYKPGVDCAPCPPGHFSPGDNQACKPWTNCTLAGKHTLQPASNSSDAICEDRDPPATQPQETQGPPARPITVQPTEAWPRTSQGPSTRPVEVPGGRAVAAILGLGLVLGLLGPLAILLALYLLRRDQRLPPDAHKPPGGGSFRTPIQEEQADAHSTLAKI
The experiment in a line: flow cytometry, monovalent fusion protein on hOX40-Jurkat-NF-κB cells.

Assay [3] deals with T2, human OX40. The experiment in a line: flow cytometry on hOX40-Jurkat-NF-κB cells. Here is the method: (§1) Stained hOX40-Jurkat-NF-κB and cOX40-Jurkat-NF-κB cells were analyzed by flow cytometry using a CytoFLEX (Beckman Coulter), the results of which are depicted in FIGS. 78 and 79, respectively, and summarized in FIG. 80.
Binding of each of the sequence optimized IL-12 ABD fusion proteins to hOX40-Jurkat-NF-κB cells was performed as described in Example 16, the results of which are depicted in FIG. 87 and summarized in FIG. 88.

The target of assay [4] is T2, human OX40. Kind of assay: competition, flow cytometry: inhibition of 2.5 nM A647-labelled OX40L-Fc binding to hOX40-Jurkat-NF-κB cells. The method, then: To investigate whether any of BGB-A445, 20E5, or 12H3 competed with OX40L for the OX40 binding site, we assessed the capacity of these clones, either in traditional IgG1 monospecific, bivalent mAb format or as bispecific, monovalent IL-12 ABD fusion proteins, to block binding of OX40L to hOX40-Jurkat-NF-κB cells. For the experiment, 30,000 hOX40-Jurkat-NF-κB cells were pre-incubated with 0-450 nM mAb or IL-12 ABD fusion protein for 10 minutes on ice prior to being stained for an additional 10 minutes on ice with 2.5 nM OX40L-Fc (Sino Biological, catalogue number 13127-H01H) that had been coupled to an A647 fluorophore using a Zenon Human IgG labelling kit (Invitrogen, catalogue number Z25408). Stained hOX40-Jurkat-NF-κB cells were analyzed by flow cytometry, and are depicted as percentage of OX40L-Fc positive cells within the OX40 positive gate (defined using a non-competing anti-OX40 mAb (clone Ber-ACT35, BioLegend catalogue number 350012) in FIG. 89.

For assay [5], the target named is T1, cynomolgus monkey OX40. The experiment in a line: flow cytometry on cOX40-Jurkat-NF-κB cells, as in Example 16. Here is the method: as §1
(§2) Sequences for the VH and VL domains of an additional anti-human OX40 antibody (clone 41) are provided in FIG. 112 (SEQ ID NOs: 170 and 171, respectively). To investigate whether clone 41 would be suitable for use within IL-12 ABD fusion proteins, this antibody was recombinantly expressed in bivalent human IgG1 format (termed ‘hG1-clone 41’) and subjected to protein A purification. […] Next, hG1-clone 41 was assessed for its capacity to block the binding of OX40L to hOX40-Jurkat-NF-κB cells, as described in Example 19. […] The capacity of hG1-clone 41 to block OX40L-induced signaling in hOX40-Jurkat-NF-κB cells was also assessed using a similar experimental setup as described in Example 20, the results of which are depicted in FIG. 117. […] Finally, the capacity of hG1-clone 41 to trigger OX40 signaling was assessed in hOX40-Jurkat-NF-κB cells, as described in Example 25.

Assay [6] has as its target T2, human OX40. Kind of assay: flow cytometry on hOX40-Jurkat-NF-κB cells, as in Example 16. The method, then: as §1, §2

B1: mono-mut23-20E5 (Fc fusion)
chain: IWELKKDVYVVELDWYPDAPGEMVVLTCDTPEEDGITWTLDQSSEVLGSGKTLTIQVKEFGDAGQYTCHKGGEVLSHSLLLLHKKEDGIWSTDILKDQKEPKNKTFLRCEAKNYSGRFTCWWLTTISTDLTFSVKSSRGSSDPQGVTCGAATLSAERVRGDNKEYEYSVECQEDSACPAAEESLPIEVMVDAVHKLKYENYTSSFFIRDIIKPDPPKNLQLKPLKNSRQVEVSWEYPDTWSTPHSYFSLTFSVQVQGKSKREKKDRVFTDKTSATVICRKNASISVRAQDRYYSSSWSEWASVPCSGGGGSGGGGSGGGGSGGGGSGGGGSRNLPVATPDPGMFPCLHHSQNLLRAVSNMLQKARQTLEFSPCTSEEIDHEDITKDKTSTVEACLPLELTKNESCLNSRETSFITNGSCLASRKTSFMMALCLSSIYEDLKMYQVEFKTMNAKLLMDPKRQIFLDQNMLAVIDELMQALNFNSETVPQKSSLEEPDFYKTAIKLCILLHAFRIRAVTIDRVMSYLNASGGGGSGGGGSEPKSSDKTHTCPPCPAPEFEGGPSVFLFPPKPKDTLMISRTPEVTCVVVDVSHEDPEVKFNWYVDGVEVHNAKTKPREEQYNSTYRVVSVLTVLHQDWLNGKEYKCKVSNKALPASIEKTISKAKGQPREPQVCTLPPSRDELTKNQVSLSCAVKGFYPSDIAVEWESNGQPENNYKTTPPVLDSDGSFFLVSKLTVDKSRWQQGNVFSCSVMHEALHNHYTQKSLSLSPG
heavy: QVQLVQSGAEVKKPGASVKVSCKASGYTFTSYVMHWVRQAPGQRLEWIGYINPYNDGTKYNEKFKGRATLTSDKSASTAYMELSSLRSEDTAVYYCANYYGSSLSMDYWGQGTLVTVSSASTKGPSVFPLAPSSKSTSGGTAALGCLVKDYFPEPVTVSWNSGALTSGVHTFPAVLQSSGLYSLSSVVTVPSSSLGTQTYICNVNHKPSNTKVDKKVEPKSCDKTHTCPPCPAPEFEGGPSVFLFPPKPKDTLMISRTPEVTCVVVDVSHEDPEVKFNWYVDGVEVHNAKTKPREEQYNSTYRVVSVLTVLHQDWLNGKEYKCKVSNKALPASIEKTISKAKGQPREPQVYTLPPCRDELTKNQVSLWCLVKGFYPSDIAVEWESNGQPENNYKTTPPVLDSDGSFFLYSKLTVDKSRWQQGNVFSCSVMHEALHNHYTQKSLSLSPG
light: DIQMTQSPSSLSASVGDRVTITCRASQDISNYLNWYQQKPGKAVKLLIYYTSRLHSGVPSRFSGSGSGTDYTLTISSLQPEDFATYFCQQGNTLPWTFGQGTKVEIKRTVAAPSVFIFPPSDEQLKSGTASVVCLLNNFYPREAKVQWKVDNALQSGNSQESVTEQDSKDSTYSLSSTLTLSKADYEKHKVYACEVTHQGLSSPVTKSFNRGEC
notes: Monovalent for OX40
In the case of B1, the “fold difference of EC50 against hOX40-Jurkat-NF-κB cells” value with cynomolgus monkey OX40 [1] was at most 2 fold. In the assay with human OX40 [2], the binding result is recorded as “binds”.

B2: mono-mut23-12H3 (Fc fusion)
chain: IWELKKDVYVVELDWYPDAPGEMVVLTCDTPEEDGITWTLDQSSEVLGSGKTLTIQVKEFGDAGQYTCHKGGEVLSHSLLLLHKKEDGIWSTDILKDQKEPKNKTFLRCEAKNYSGRFTCWWLTTISTDLTFSVKSSRGSSDPQGVTCGAATLSAERVRGDNKEYEYSVECQEDSACPAAEESLPIEVMVDAVHKLKYENYTSSFFIRDIIKPDPPKNLQLKPLKNSRQVEVSWEYPDTWSTPHSYFSLTFSVQVQGKSKREKKDRVFTDKTSATVICRKNASISVRAQDRYYSSSWSEWASVPCSGGGGSGGGGSGGGGSGGGGSGGGGSRNLPVATPDPGMFPCLHHSQNLLRAVSNMLQKARQTLEFSPCTSEEIDHEDITKDKTSTVEACLPLELTKNESCLNSRETSFITNGSCLASRKTSFMMALCLSSIYEDLKMYQVEFKTMNAKLLMDPKRQIFLDQNMLAVIDELMQALNFNSETVPQKSSLEEPDFYKTAIKLCILLHAFRIRAVTIDRVMSYLNASGGGGSGGGGSEPKSSDKTHTCPPCPAPEFEGGPSVFLFPPKPKDTLMISRTPEVTCVVVDVSHEDPEVKFNWYVDGVEVHNAKTKPREEQYNSTYRVVSVLTVLHQDWLNGKEYKCKVSNKALPASIEKTISKAKGQPREPQVCTLPPSRDELTKNQVSLSCAVKGFYPSDIAVEWESNGQPENNYKTTPPVLDSDGSFFLVSKLTVDKSRWQQGNVFSCSVMHEALHNHYTQKSLSLSPG
heavy: QVQLVQSGAEVKKPGSSVKVSCKASGYTFKDYTMHWVRQAPGQGLEWIGGIYPNNGGSTYNQNFKDRVTLTADKSTSTAYMELSSLRSEDTAVYYCARMGYHGPHLDFDVWGQGTTVTVSSASTKGPSVFPLAPSSKSTSGGTAALGCLVKDYFPEPVTVSWNSGALTSGVHTFPAVLQSSGLYSLSSVVTVPSSSLGTQTYICNVNHKPSNTKVDKKVEPKSCDKTHTCPPCPAPEFEGGPSVFLFPPKPKDTLMISRTPEVTCVVVDVSHEDPEVKFNWYVDGVEVHNAKTKPREEQYNSTYRVVSVLTVLHQDWLNGKEYKCKVSNKALPASIEKTISKAKGQPREPQVYTLPPCRDELTKNQVSLWCLVKGFYPSDIAVEWESNGQPENNYKTTPPVLDSDGSFFLYSKLTVDKSRWQQGNVFSCSVMHEALHNHYTQKSLSLSPG
light: DIQMTQSPSSLSASVGDRVTITCKASQDVGAAVAWYQQKPGKAPKLLIYWASTRHTGVPSRFSGSGSGTDFTLTISSLQPEDFATYYCQQYINYPLTFGGGTKVEIKRTVAAPSVFIFPPSDEQLKSGTASVVCLLNNFYPREAKVQWKVDNALQSGNSQESVTEQDSKDSTYSLSSTLTLSKADYEKHKVYACEVTHQGLSSPVTKSFNRGEC
notes: Monovalent for OX40
B2: in the assay with cynomolgus monkey OX40 [1], the “fold difference of EC50 against hOX40-Jurkat-NF-κB cells” value was at most 2 fold. The molecule also yielded an EC50 with human OX40 [3] of 13.6 nM. Also, in the assay with human OX40 [4], the IC50 was determined as 227 nM.

B3: hG1-clone 41 (antibody, V domains shown)
VH: QVQLVESGGGVVQPGRSLRLSCAASGFTFSSYGMHWVRQAPGKGLEWVALISYDGSNKIYTDSVKGRFTISRDNSKNTLYLQMNSLRPEDTAVYYCAKGREIVATYFDYWGQGTLVTVSS
VL: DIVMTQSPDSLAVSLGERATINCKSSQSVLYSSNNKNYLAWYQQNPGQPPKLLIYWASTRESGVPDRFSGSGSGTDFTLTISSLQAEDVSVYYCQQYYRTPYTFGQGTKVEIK
notes: Recombinantly expressed in bivalent human IgG1 format
With B3, the EC50 was 1 nM with cynomolgus monkey OX40 [5] and 1.1 nM with human OX40 [6].

What is called EC50 is the concentration needed to bring the measured effect to its halfway point. As a reminder, the IC50 is the point on the concentration scale where inhibition reaches its midpoint.
